Measured values reported in EP2469278A1, “Reagentless fluorescent biosensors from nanofitins, rational design methods to create reagentless fluorescent biosensors and methods of their use” (Institut Pasteur, priority 2010, dated 2012).
Substitutions are numbered along the chain they refer to. In names and notes the source's numbering stands. Several values for one entry are separate records, joined by “and”; a condition that tells them apart may be missing. Identical values can stand only once. One block for each binder: values may come before it.

Tests used:
hen egg-white lysozyme [1] = biological target: T1, hen egg-white lysozyme (hen, UniProt P00698 19-147); assay: from Kd in solution: fluorescence titration of conjugate against competition Biacore of H4S(wt)
T1 construct: also called HEL

hen egg-white lysozyme [2] = biological target: T1, hen egg-white lysozyme; assay: fluorescence titration in solution, 0.3 µM conjugate, buffer C, 25 °C (fit R = 0.72)
bovine serum albumin = biological target: T2, bovine serum albumin (bovine, UniProt P02769 25-607); assay: fluorescence titration with BSA, 0.3 µM conjugate, buffer C
T2 construct: Heterologous antigen used as specificity control; also called BSA

hen egg-white lysozyme [3] = biological target: T1, hen egg-white lysozyme; assay: fluorescence titration in solution, 0.3 µM conjugate, buffer C, 25 °C
hen egg-white lysozyme [4] = biological target: T1, hen egg-white lysozyme; assay: comparison of Kd in solution (fluorescence titration against competition Biacore)

ΔΔG (conjugate against H4S(wt)) (hen egg-white lysozyme [1]): ≥ 1.5 kcal/mol
Kd (hen egg-white lysozyme [2]): 1230 nM
B1: H4S conjugate, IANBD fluorophore coupled at position Trp22 (designed binder)
chain: MRGSHHHHHHGSVKVKFFWNGEEKEVDTSKIVCVKRAGKSVLFIYDDNGKNGYGDVTEKDAPKELLDMLARAEREKKLN
modifications: Cys at position 22 (H4S numbering) coupled to IANBD ester (ANBD)

ΔΔG (conjugate against H4S(wt)) (hen egg-white lysozyme [1]): ≥ 0.5 kcal/mol and ≤ 1.2 kcal/mol
Kd (bovine serum albumin): 1000 nM
Kd (hen egg-white lysozyme [3]): 98 nM
ΔF∞/F0 (maximal relative variation of fluorescence on HEL binding) (hen egg-white lysozyme [3]): 8.8
fold lower affinity than the parental protein H4S(wt) (hen egg-white lysozyme [4]): ~2 fold
B2: H4S(K24ANBD) (designed binder)
chain: B1 chain with C33W, K35C
modifications: Cys at position 24 (H4S numbering) coupled to IANBD ester (ANBD)
notes: also called H4S(Lys24ANBD); Lys24
